IntAct's records for PubMed 21276203

B1: Serine/threonine-protein kinase OXI1 (Arabidopsis thaliana (Mouse-ear cress)), Q9LSF1 (parent)
chain: MLEGDEKQSRALDFNRLEVLSLLGRGAKGVVFLVRDDDAKLLALKVILKEAIEKKKKGRESEDDEYKRVSFEQGVLSRFDHPLFPSLHGVLATDKVIGYAIDYCPGQNLNSLRKMQSESMFSDEIIRFYAAELVLALDYLHNQGIVYRDLKPDNVMIQENGHLMLIDFDLSTNLAPRTPQPSPSLSKPSPTMKRKKRLFRFTSFCNSGISPQESISVHSSSTLAVSDSSGEKSNSFVGTEEYVAPEVISGDGHDFAVDWWSLGVVLYEMLYGATPFRGSNRKETFYRILSKPPNLTGETTSLRDLIRRLLEKDPSRRINVEEIKGHDFFRGVDWEKVILVSRPPYIPAPDDGGDKGTDVNTKMDVENIVQEIFAARQEREKQSGDNNKNANMKIKDNTSGEWVKGLNNNHDLESDNNFLVF
partner: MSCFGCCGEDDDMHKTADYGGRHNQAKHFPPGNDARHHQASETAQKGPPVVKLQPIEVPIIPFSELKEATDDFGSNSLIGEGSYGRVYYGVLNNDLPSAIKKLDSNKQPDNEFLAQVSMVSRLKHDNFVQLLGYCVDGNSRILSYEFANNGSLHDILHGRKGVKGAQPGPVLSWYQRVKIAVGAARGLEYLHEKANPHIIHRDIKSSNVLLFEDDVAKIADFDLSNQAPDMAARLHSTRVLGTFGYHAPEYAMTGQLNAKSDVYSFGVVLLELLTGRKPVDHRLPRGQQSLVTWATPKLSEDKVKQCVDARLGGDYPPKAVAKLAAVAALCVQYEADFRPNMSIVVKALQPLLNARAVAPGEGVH

Variants of: B1
Settings: with y2706, O80719

effect of a mutation on the interaction | Variant
disrupting interaction | MLEGDEKQSRALDFNRLEVLSLLGRGAKGVVFLVRDDDAKLLALRVILKEAIEKKKKGRESEDDEYKRVSFEQGVLSRFDHPLFPSLHGVLATDKVIGYAIDYCPGQNLNSLRKMQSESMFSDEIIRFYAAELVLALDYLHNQGIVYRDLKPDNVMIQENGHLMLIDFDLSTNLAPRTPQPSPSLSKPSPTMKRKKRLFRFTSFCNSGISPQESISVHSSSTLAVSDSSGEKSNSFVGTEEYVAPEVISGDGHDFAVDWWSLGVVLYEMLYGATPFRGSNRKETFYRILSKPPNLTGETTSLRDLIRRLLEKDPSRRINVEEIKGHDFFRGVDWEKVILVSRPPYIPAPDDGGDKGTDVNTKMDVENIVQEIFAARQEREKQSGDNNKNANMKIKDNTSGEWVKGLNNNHDLESDNNFLVF [K45R]
